molecular target: recombinant MATα2 (UniProt P31153 1-395); test: EMSA; 200 ng protein; LightShift Chemiluminescent EMSA Kit protocol (Thermo); buffer, salt, pH and binding temperature not stated; conditions: label: biotin (extract EMSA), SYBR Green gel stain with recombinant protein, blunt
Sequence (P31153 whole entry): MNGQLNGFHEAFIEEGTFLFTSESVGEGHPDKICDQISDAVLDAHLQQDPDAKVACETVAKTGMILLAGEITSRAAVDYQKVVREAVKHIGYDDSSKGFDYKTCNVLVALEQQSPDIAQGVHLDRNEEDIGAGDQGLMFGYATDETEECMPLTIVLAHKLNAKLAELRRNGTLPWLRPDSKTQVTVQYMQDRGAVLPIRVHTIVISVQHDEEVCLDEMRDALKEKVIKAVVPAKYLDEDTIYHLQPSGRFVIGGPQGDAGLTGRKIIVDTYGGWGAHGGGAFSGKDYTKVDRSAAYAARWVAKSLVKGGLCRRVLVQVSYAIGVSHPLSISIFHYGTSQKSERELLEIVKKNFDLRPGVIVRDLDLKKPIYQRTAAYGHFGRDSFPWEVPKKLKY

Binder	binding result
Bcl-2 P2 promoter probe 1 (site 1) (dsDNA) DNA 1: TGCGGATTGACATTTCTGTGAA DNA 2: TTCACAGAAATGTCAATCCGCA	binds
Bcl-2 P2 promoter probe 2 (site 2) (dsDNA) DNA 1: GGTTTAATGTAACTTTCAATGG DNA 2: CCATTGAAAGTTACATTAAACC	binds
Bcl-2 P2 promoter probe 3 (site 3) (dsDNA) DNA 1: GGCAGCTTAATACATTCTTTTTAGCCG DNA 2: CGGCTAAAAAGAATGTATTAAGCTGCC	binds
